This note sets out measurements from US20260152557A1 (Adimab, published 2026).

The chains are these.
B1: Fab of ADI-48587 (Antibody No. 2) (Fab, V domains shown)
VH: QVQLVQSGAEVKKPGASVKVSCKASGFNIKDYYMHWVRQAPGQRLEWMGWIDLENANTIYDAKFQGRVTITRDTSASTAYMELSSLRSEDTAVYYCARDHYHRYFYDVWGQGTLVTVSS
VL: DIVMTQSPDSLAVSLGERATINCKSSQSLLNARTGHNYLAWYQQKPGQPPKLLIYWASTRESGVPDRFSGSGSGTDFTLTISSLQAEDVAVYYCKQSHSHRTFGGGTKVEIK
notes: Fab made by papain digestion of the human IgG1 (yeast- or CHO-produced); also called Antibody No. 2 Fab; ADI-48587 Fab
B2: Fab of ADI-74968 (Antibody No. 6) (Fab, V domains shown)
VH: B1 VH with H100A
VL: B1 VL with H98Y
notes: Fab made by papain digestion of the human IgG1 (yeast- or CHO-produced); also called Antibody No. 6 Fab; ADI-74968 Fab
B3: Fab of ADI-74967 (Antibody No. 5) (Fab, V domains shown)
VH: B1 VH
VL: B1 VL with D1G, H36K
notes: Fab made by papain digestion of the human IgG1 (yeast- or CHO-produced); also called Antibody No. 5 Fab; ADI-74967 Fab
B4: Fab of ADI-74965 (Antibody No. 3) (Fab, V domains shown)
VH: B1 VH with H100A
VL: B1 VL
notes: Fab made by papain digestion of the human IgG1 (yeast- or CHO-produced); also called Antibody No. 3 Fab; ADI-74965 Fab
B5: ADI-48587 (Antibody No. 2), human IgG1 (antibody, V domains shown)
VH: B1 VH
VL: B1 VL
notes: Tested as human IgG1 (yeast-produced aglycosylated, or CHO-produced); also called Ab No. 2; parent pH-dependent antibody
B6: ADI-74966 (Antibody No. 4), human IgG1 (antibody, V domains shown)
VH: B1 VH
VL: B1 VL with H98Y
notes: Tested as human IgG1 (yeast-produced aglycosylated, or CHO-produced)
B7: ADI-74967 (Antibody No. 5), human IgG1 (antibody, V domains shown)
VH: B1 VH
VL: B1 VL with D1G, H36K
notes: as for B6
B8: ADI-74965 (Antibody No. 3), human IgG1 (antibody, V domains shown)
VH: B1 VH with H100A
VL: B1 VL
notes: as for B6
B9: ADI-74968 (Antibody No. 6), human IgG1 (antibody, V domains shown)
VH: B1 VH with H100A
VL: B1 VL with H98Y
notes: as for B6

Where a chain is given by its changes, count along the chain named.

T2 sequence (chain, as listed by the source mutant, form in doubt, chain 1 of 2): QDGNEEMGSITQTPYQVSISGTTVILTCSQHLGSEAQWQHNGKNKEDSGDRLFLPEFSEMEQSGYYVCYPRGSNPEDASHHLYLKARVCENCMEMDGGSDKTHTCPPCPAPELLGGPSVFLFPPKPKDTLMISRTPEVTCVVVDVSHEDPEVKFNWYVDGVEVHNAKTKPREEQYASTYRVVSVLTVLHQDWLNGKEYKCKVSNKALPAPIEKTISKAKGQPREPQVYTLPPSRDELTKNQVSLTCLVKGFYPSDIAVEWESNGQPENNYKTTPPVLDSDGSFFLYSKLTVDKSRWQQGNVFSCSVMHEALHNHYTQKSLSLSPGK
T2 sequence (Q95LI8 22-100, stated change not applied, form in doubt, chain 2 of 2): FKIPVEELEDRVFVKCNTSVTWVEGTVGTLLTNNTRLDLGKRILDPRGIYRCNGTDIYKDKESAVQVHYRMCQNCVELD

The target of the first assay is T1, human CD3εδ-Fc heterodimer (Hu CD3ε Fc / CD3δ Fc-HIS) (human, UniProt P04234 22-100).
T1 construct: range 22-100; Produced in HEK 293 cells with a heterologous signal peptide; heterodimer purified by Ni Sepharose and Mono Q; also called Hu CD3εδ Fc heterodimer; CD3εδ Fc-HIS heterodimer; not shown: Fc-HIS part of CD3δ Fc-HIS
T1 sequence (chain, as listed by the source mutant, form in doubt, chain 1 of 2): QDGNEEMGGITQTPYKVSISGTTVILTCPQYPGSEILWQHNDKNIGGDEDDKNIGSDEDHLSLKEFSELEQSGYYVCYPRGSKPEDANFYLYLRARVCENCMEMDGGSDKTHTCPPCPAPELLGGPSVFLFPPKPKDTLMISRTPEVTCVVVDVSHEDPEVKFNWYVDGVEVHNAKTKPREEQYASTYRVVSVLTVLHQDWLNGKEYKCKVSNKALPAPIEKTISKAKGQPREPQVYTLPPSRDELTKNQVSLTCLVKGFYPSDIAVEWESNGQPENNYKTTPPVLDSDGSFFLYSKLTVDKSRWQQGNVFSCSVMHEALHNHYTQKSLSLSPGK
T1 sequence (P04234 22-100, stated change not applied, form in doubt, chain 2 of 2): as the sequence (Q95LI8 22-100, stated change not applied, form in doubt, chain 2 of 2) above, with V5I, K15N, V20I, T32S, N33D, N34I, A64T, N74S counted along it
The assay is described as follows: SPR (Biacore 8K), CHO-produced Fab, monovalent, pH 6.0. On the procedure:
(§1) Anti-CD3 antibodies (Antibody Nos. 1-13) were produced as human IgG1 antibodies in yeast or Chinese hamster ovary (CHO) cells, and Fab fragments were generated from the IgG1 antibodies by papain digestion and purified IgGs produced in yeast were aglycosylated. CHO produced IgGs had standard CH2 glycosylation. […] Monovalent binding affinity to human or cynomolgus CD3εδ-Fc at pH 7.4 and pH 6.0 were measured via surface plasmon resonance (SPR) using the BIACORE® 8K (Cytiva, previously GE Healthcare Life Sciences) system and analyzed using BIACORE® Evaluation Software.
(§2) BIACORE® KD measurements (surface plasmon resonance; SPR). BIACORE® affinity measurements were performed generally as previously described. Briefly, human CD3εδ-Fc heterodimer produced as described above was immobilized to a NiNTA sensor chip in a BIACORE® 8K (Cytiva, previously GE Healthcare Life Sciences) to a response level of ˜500 RUs. […] The sensor chip was doubly regenerated between cycles using 0.35 M EDTA and 0.1 M NaOH. The resulting data were double reference subtracted and fit to a 1:1 binding model using BIACORE® Evaluation Software.
Usually Kd stands for the equilibrium constant for the complex coming apart. Lower therefore signals higher affinity. Turning to B1, the Kd came out at 43.2 nM. This lies in the double-digit nanomolar range.
B2 had a Kd of 6.37 nM.
B3 gave a Kd of 8.16 nM.
For the molecule B4, the equilibrium dissociation constant (Kd) turned out to be 10.9 nM.

A further assay concerns the target T2, cynomolgus CD3εδ-Fc heterodimer (Cy CD3ε Fc / CD3δ Fc-HIS) (cynomolgus, UniProt Q95LI8 22-100).
T2 construct: range 22-100; Produced in HEK 293 cells; also called Cy CD3εδ Fc heterodimer; not shown: Fc-HIS part of CD3δ Fc-HIS
The description is as above. On the procedure:
as §1, §2
Take B1: the Kd worked out at 25.4 nM.
On to B2, for which the Kd was determined as 6.18 nM. Compared with the last molecule, the Kd is about 4.1-fold lower.
Take B3: the Kd turned out to be 11.6 nM.
The molecule B4 gave a Kd of 11.3 nM. This Kd and that of the molecule before are within 1.5-fold of each other.

A further assay concerns the target T1, human CD3εδ-Fc heterodimer (Hu CD3ε Fc …). The assay is described as follows: SPR (Biacore 8K), CHO-produced Fab, monovalent, pH 7.4. The method, then: as §1, §2
(SPR reads the build-up and loss of mass on a sensor chip optically.)
As for B2, the affinity, expressed as Kd, was 47.5 nM. This lies in the double-digit nanomolar range.
Turning to B3, the affinity, expressed as Kd, was 55.5 nM.

The target of the next assay is T2, cynomolgus CD3εδ-Fc heterodimer (Cy …). Described as above. On the procedure:
as §1, §2
In turn, B1 showed a Kd of 62.7 nM.
Same read-out and setting: the figure for B2 is 46.5 nM.
B3 had a Kd of 73.7 nM.

The target of another assay is T1, human CD3εδ-Fc heterodimer (Hu CD3ε Fc …). As to the kind of experiment: SPR (Biacore 8K), yeast-produced Fab, monovalent, pH 6.0. The method, then:
as §1, §2
As for B1, the Kd turned out to be 15.7 nM.
On the same count and under the same terms, the figure for B2 is 6.07 nM; for B3 it is 8.45 nM.
As for B4, the Kd is 10.5 nM. This Kd and that of the molecule before are within 1.5-fold of each other.

A further assay deals with T3, cynomolgus CD3 on HSC-F cells (cynomolgus, UniProt Q95LI5 22-198).
T3 construct: whole, on cells; also called Cyno HSC-F; cynomolgus HSC-F cells
T3 sequence (Q95LI5 22-198): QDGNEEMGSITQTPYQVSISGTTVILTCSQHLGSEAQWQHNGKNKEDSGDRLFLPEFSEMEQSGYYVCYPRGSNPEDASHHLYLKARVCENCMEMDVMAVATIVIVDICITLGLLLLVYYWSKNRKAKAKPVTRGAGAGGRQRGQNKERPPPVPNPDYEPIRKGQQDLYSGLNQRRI
As to the kind of experiment: flow cytometry, yeast-produced IgG 100 nM on HSC-F cells, pH 6.0. On the procedure:
(§3) Anti-CD3 antibodies Antibody Nos. 1-13 were produced as aglycosylated IgGs comprising a IgG1 Fc region in yeast cells. Binding to human or cynomolgus CD3-expressing cells (human CD3+ Jurkat cells or cynomolgus HSC-F cells, respectively) at pH 7.4 and pH 6.0 were measured by fluorescence-activated single cell sorting (FACS). Normalized cell binding (NCB) values were calculated based on median fluorescence intensity (MFI) values, CD3 negative Jurkat cells were used as a negative control.
(§4) Cell binding assay, CD3+ and CD3− human Jurkat cells (ATCC) and cynomolgus HSC-F cells (NIH) were thawed and washed with cold PBSF buffer, pH 7.4 (PBS+0.1% BSA, pH 7.4). About 200,000 cells were aliquoted per well of a 96-well plate (FACS Assay Plate VWR BD 353263) and pelleted by centrifugation (5 minutes at 500×g). The cells were washed with either PBSF pH 7.4 or PBSF pH 6.0 (PBS+0.1% BSA, pH 6.0), and then resuspended in 100 μl in either PBSF pH 7.4 or PBSF pH 6.0 with IgG antibody (100 nM) produced in yeast as described above. The mixture (cells+antibody) was incubated for 20 minutes on ice, then washed twice with either PBSF pH 7.4 or PBSF pH 6.0. Cells were resuspended in 50 μl of propidium iodide (Roche; 1:500 dilution) and anti-human IgG-RPE (Southern Biotech; 1:100 dilution) prepared in either PBSF pH 7.4 or PBSF pH 6.0, then incubated for 20 minutes on ice in the dark before cells were washed twice with either PBSF pH 7.4 or PBSF pH 6.0. Binding was analyzed on FACS Canto 11.
A general note: A flow cytometer gives signals particle by particle.
Turning to B5, the NCB came out at 437.
For the molecule B6, the NCB was 378.
Still for that read-out and setting: the figure for B7 is 512; for B8 it is 551.
In the case of B9, the NCB was found to be 548.

The next assay has as its target T3, cynomolgus CD3 on HSC-F cells. As to the kind of experiment: flow cytometry, yeast-produced IgG 100 nM on HSC-F cells, pH 7.4. On the procedure: as §3, §4
Take B5: the NCB was found to be 0.
In the case of B6, the NCB was 0.
On to B7, for which the NCB amounted to 81.
Molecule B8 returned an NCB of 74.
On to B9, for which the NCB was found to be 106.

For another assay, the target named is T4, human CD3 on CD3+ Jurkat cells (human, UniProt P07766 23-207).
T4 construct: whole, on cells; The whole CD3 complex stands on the cells; also called Human CD3 Jurkat; human CD3+ Jurkat cells
T4 sequence (P07766 23-207): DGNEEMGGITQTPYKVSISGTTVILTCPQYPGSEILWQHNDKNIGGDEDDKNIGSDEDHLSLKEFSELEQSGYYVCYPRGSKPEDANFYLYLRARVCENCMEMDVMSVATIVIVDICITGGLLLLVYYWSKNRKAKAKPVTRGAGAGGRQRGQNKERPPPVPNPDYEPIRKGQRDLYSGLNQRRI
As to the kind of experiment: flow cytometry, yeast-produced IgG 100 nM on CD3+ Jurkat cells, pH 6.0. On the procedure: as §3, §4
For B5, the NCB came to 149.
For the molecule B6, the NCB came out at 131.
The molecule B7 showed an NCB of 185.
Molecule B8 came in with an NCB of 181.
Still for that read-out and setting: to B9 belongs 197.

Another assay addresses T4, human CD3 on CD3+ Jurkat cells. The assay is described as follows: flow cytometry, yeast-produced IgG 100 nM on CD3+ Jurkat cells, pH 7.4. The method, then:
as §3, §4
Take B5: the NCB was 0.
In turn, B6 gave an NCB of 0.
As to B7, the NCB turned out to be 34.
The molecule B8 had an NCB of 39.
Same read-out and setting: to B9 belongs 62.

The target in another assay is T1, human CD3εδ-Fc heterodimer (Hu CD3ε Fc …). As to the kind of experiment: BLI (Octet), CD3εδ-Fc on AHC sensor, CHO-derived Fab 100 nM in solution, pH 6.0. Background: In BLI a coated tip is dipped into the sample, and binding shifts an interference pattern.
The molecule B1 gave a Kd of 65.9 nM.
Turning to B2, the Kd amounted to 14.8 nM.
As to B3, binding was put at a Kd of 24.9 nM.
B4: the Kd came out at 24.4 nM.

A further assay shares this target. The assay is described as follows: BLI (Octet), CD3εδ-Fc on AHC sensor, CHO-derived Fab 100 nM in solution, pH 7.4.
As to B2, the dissociation constant Kd amounted to 69.3 nM.
Same read-out and setting: to B4 belongs 142 nM.

The target in a further assay is T2, cynomolgus CD3εδ-Fc heterodimer (Cy …). The assay is described as follows: BLI (Octet), CHO-produced IgG on AHC sensor, CD3εδ-Fc 100 nM in solution, pH 6.0. The method, then: (§5) Anti-CD3 antibodies Antibody Nos. 1-13 were produced as human IgG1 antibodies in yeast or CHO cells. IgGs produced in yeast were aglycosylated, CHO) produced IgGs had standard CH2 glycosylation. Binding affinity to human or cynomolgus CD3εδ-Fc at pH 7.4 and pH 6.0 was measured via biolayer interferometry (BLI) using the ForteBio OCTET® HTX system and analyzed using the ForteBio software.
(§6) Kinetics were analyzed using the 1:1 binding model.
Molecule B5 showed a Kd of 451 nM.
B6: the Kd worked out at 209 nM.
On the same count and under the same terms, the figure for B7 is 37 nM.
For B8, the Kd came to 33.5 nM.
Molecule B9 gave a Kd of 17 nM.

A further assay concerns the target T1, human CD3εδ-Fc heterodimer (Hu CD3ε Fc …). The assay is described as follows: BLI (Octet), yeast-produced IgG on AHC sensor, CD3εδ-Fc 100 nM in solution, pH 6.0. On the procedure: as §5, §6
Regarding B5, the Kd was 9.33 nM.
For the molecule B6, binding was put at a Kd of 6.95 nM.
B7: binding was put at a Kd of 5.94 nM.
B8 showed a Kd of 6.68 nM.
Still for that read-out and setting: to B9 belongs 5.23 nM.

The target in the next assay is T2, cynomolgus CD3εδ-Fc heterodimer (Cy …). The assay is described as above. On the procedure:
as §5, §6
In turn, B6 gave a Kd of 9.71 nM.
On the same count and under the same terms, to B7 belongs 7.38 nM; to B8, 6.56 nM.
For the molecule B9, binding was characterised by a dissociation constant (Kd) of 5.26 nM.

The target in a further assay is T1, human CD3εδ-Fc heterodimer (Hu CD3ε Fc …). The assay is described as follows: BLI (Octet), yeast-produced IgG on AHC sensor, CD3εδ-Fc 100 nM in solution, pH 7.4. On the procedure: as §5, §6
On to B7, for which the Kd was determined as 14.5 nM.
The same measure, in the same setting: the figure for B8 is 13.7 nM; for B9 it is 13 nM.

The target in the next assay is T2, cynomolgus CD3εδ-Fc heterodimer (Cy …). The description is as above. On the procedure:
as §5, §6
B6 displayed a Kd of 47.6 nM.
In turn, B7 returned a Kd of 21.9 nM. Compared with the last molecule, the Kd is about 2.2-fold lower.
For B8, binding was characterised by a dissociation constant (Kd) of 21.8 nM.
On to B9, for which the Kd amounted to 20.5 nM.
